This note sets out measurements from US20080220450A1, “Population Based Prediction Methods for Immune Response Determinations and Methods for Verifying Immunological Response Data” (Danisco US, Inc., Genencor Division, priority 2004, published 2008).

For this experiment, the system named is CD4+ T-cells and dendritic cells. The experiment can be described thus: I-MUNE assay: CD4+ T-cell proliferation to 15-mer peptide sets presented by dendritic cells. Further details: Structure Value: scale not given here. It counts as cell-based, human. To be noted: for Responses per peptide: positive response SI of 2.95 or greater, community donors; for Response/Peptide: SI>2.95; for background response: average percent responders per peptide, +/− sd where given; for Prominent responses noted at amino acids: peptide regions of the protein. As for the experimental part:
All peptides were obtained from a commercial source (Mimotopes, San Diego, C-A). For the I-MUNE® assay system described herein, 15-mer peptides offset by 3 amino acids that described the entire sequence of the proteins of interest were synthesized in a multipin format (See, Maeji et al., J. Immunol. Meth., 134:23-33 [1990]). Peptides were resuspended in DMSO at approximately 1 to 2 mg/ml, and stored at −70° C. prior to use. Each peptide was tested at least in duplicate, although for small peptide sets (e.g., Ber e 1), the peptides were routinely tested in triplicate.
Volunteer donor human blood buffy coat samples were obtained from two commercial sources (Stanford Blood Center, Palo Alto, Calif., and the Sacramento Medical Foundation, Sacramento, Calif.). Buffy coat samples were further purified by density separation. Each sample was HLA typed for HLA-DR and HLA-DQ using a commercial PCR-based kit (Bio-Synthesis).
Monocytes were purified by adherence to plastic in AIM V medium (Gibco/Life Technologies). Adherent cells were cultured in AIM V media containing 500 units/ml of recombinant human IL-4 (Endogen) and 800 units/ml recombinant human GM-CSF (Endogen) for 5 days. On day 5, recombinant human IL-1α (Endogen) and recombinant human TNF-α (Endogen) were added to 50 units/ml and 0.2 units/ml, respectively. On day 7, the fully matured dendritic cells were treated with 50 μg/ml mitomycin C (Sigma) for 1 hour at 37° C. Treated dendritic cells were dislodged with 50 mM EDTA in PBS, washed in AIM V medium, counted, and resuspended in AIM V media at 2×10^5 cells/ml.
CD4^+ T-cells were purified by negative selection from frozen aliquots of human peripheral blood mononuclear cells (PBMC) using Cellect CD4 columns (Cedarlane). […] CD4^+ T-cells were resuspended in AIM V media at 2×10^6 cells per ml.
CD4^+ T-cells and dendritic cells were plated in round-bottomed 96 well format plates at 100 μl of each cell mix per well. Peptide was added to a final concentration of approximately 5 ug/ml in 0.25-0.5% DMSO. Control wells contained 0.5% DMSO without added peptide. Each peptide was tested in duplicate. Cultures were incubated at 37° C., in 5% CO2 for 5 days. On day 5, 0.5 uCi of tritiated thymidine (NEN DuPont) was added to each well. On day 6, the cultures were harvested onto glass fiber mats using a TomTec manual harvester (TomTec), then processed for scintillation counting. Proliferation was assessed by determining the average counts per minute (CPM) value for each set of duplicate wells (TriLux Beta). This method is also described in U.S. Pat. No. 6,218,165 and Stickler et al., J. Immunother. 23: 654-660 (2000), both of which are herein incorporated by reference.
For each individual buffy coat sample, the average CPM values obtained in the I-MUNE® assay for all of the peptides were analyzed. The average CPM values for each peptide were divided by the average CPM value for the control (DMSO only) wells to determine the “stimulation index” (SI). Donors were tested with each peptide set until an average of at least two responses per peptide were compiled. The data for each protein was graphed showing the percent responders to each peptide within the set. A positive response was collated if the SI value was equal to or greater than 2.95. This value was chosen as it approximates a difference of three standard deviations in a normal population distribution. For each protein assessed, positive responses to individual peptides by individual donors were compiled. To determine the background response for a given protein, the percent responders for each peptide in the set were averaged and a standard deviation was calculated. SI values for each donor were compiled for each peptide set, and the percent of responders reported.

Where [1] appears, read: Table 1, from compiled responses.
The mark [2] stands for this setting: Table 3, Stanford and Sacramento donors.

B1: BPN′ Y217L: B. amyloliquifaciens subtilisin BPN′ Y217L, Swissprot accession number P00782 (protein, UniProt P00782 108-382, looked up, variant Y217L)
Subtilisin BPN': AQSVPYGVSQIKAPALHSQGYTGSNVKVAVIDSGIDSSHPDLKVAGGASMVPSETNPFQDNNSHGTHVAGTVAALNNSIGVLGVAPSASLYAVKVLGADGSGQYSWIINGIEWAIANNMDVINMSLGGPSGSAALKAAVDKAVASGVVVVAAAGNEGTSGSSSTVGYPGKYPSVIAVGAVDSSNQRASFSSVGPELDVMAPGVSIQSTLPGNKYGALNGTSMASPHVAGAAALILSKHPNWTNTQVRSSLENTTTKLGDSFYYGKGLINVQAAAQ
In the case of B1, the background response worked out at 3.62%. Also, where the note is “Table 1”, the “Number of epitope regions” value was 2 and the Responses per peptide is 3.65. The same molecule showed a Structure Value under setting [1] of 0.53. In addition, where the note is “Table 3”, the Background % was 3.65% and the Response/Peptide amounted to 3.61. In addition, the “Structure Value” under setting [2] stood at 0.65. Moreover, under “Table 4, number of prominent epitopes”, the “Prominent Epitope” value was found to be 2. For the setting “Table 4, parent, dataset of 113 individuals”, the “Structure Value” is given as 0.53. Moreover, the “SIV (structure index value)” value (Table 21, parent, I-MUNE assay data) came to 0.53. Where the note is “compiled responses”, this molecule showed a Structure Value of 0.53.

B2: B. lentus subtilisin: Bacillus lentus subtilisin, industrial protease, Swissprot accession number P29600 (protein, UniProt P29600 1-269, looked up)
Subtilisin Savinase: AQSVPWGISRVQAPAAHNRGLTGSGVKVAVLDTGISTHPDLNIRGGASFVPGEPSTQDGNGHGTHVAGTIAALNNSIGVLGVAPSAELYAVKVLGASGSGSVSSIAQGLEWAGNNGMHVANLSLGSPSPSATLEQAVNSATSRGVLVVAASGNSGAGSISYPARYANAMAVGATDQNNNRASFSQYGAGLDIVAPGVNVQSTYPGSTYASLNGTSMATPHVAGAAALVKQKNPSWSNVQIRNHLKNTATSLGSTNLYGSGLVNAEAATR
In the case of B2, the background response is listed as 3.45+/−2.90% and the “Prominent responses noted at amino acids” value is on record as 160-174. For the setting “Table 1”, the “Number of epitope regions” value came out at 1 and the Responses per peptide was found to be 2.24. Further, the Structure Value under setting [1] turned out to be 0.64. Under “Table 3”, this molecule had a Background % of 3.45% and a Response/Peptide of 2.24. In addition, the “Structure Value” under setting [2] came out at 0.65. For the setting “compiled responses”, this molecule returned a Structure Value of 0.64.

B3: Amylase: Bacillus licheniformis alpha amylase, industrial enzyme, Swissprot accession number P06278 (protein, UniProt P06278 30-512, looked up)
Alpha-amylase: ANLNGTLMQYFEWYMPNDGQHWKRLQNDSAYLAEHGITAVWIPPAYKGTSQADVGYGAYDLYDLGEFHQKGTVRTKYGTKGELQSAIKSLHSRDINVYGDVVINHKGGADATEDVTAVEVDPADRNRVISGEHRIKAWTHFHFPGRGSTYSDFKWHWYHFDGTDWDESRKLNRIYKFQGKAWDWEVSNENGNYDYLMYADIDYDHPDVAAEIKRWGTWYANELQLDGFRLDAVKHIKFSFLRDWVNHVREKTGKEMFTVAEYWQNDLGALENYLNKTNFNHSVFDVPLHYQFHAASTQGGGYDMRKLLNSTVVSKHPLKAVTFVDNHDTQPGQSLESTVQTWFKPLAYAFILTRESGYPQVFYGDMYGTKGDSQREIPALKHKIEPILKARKQYAYGAQHDYFDHHDIVGWTREGDSSVANSGLAALITDGPGGAKRMYVGRQNAGETWHDITGNRSEPVVINSEGWGEFHVNGGSVSIYVQR
As to B3, the background response is 2.80+/−3.69%. Moreover, under “Table 1”, the “Number of epitope regions” value worked out at 3 and the Responses per peptide is given as 2.29. The molecule also returned a Structure Value under setting [1] of 0.81. Where the note is “Table 3”, the Background % is 2.79% and the Response/Peptide is listed as 2.29. Also, the “Structure Value” under setting [2] is 0.81. For the same molecule, for the setting “compiled responses”, the Structure Value is recorded as 0.81.

B4: ALCALASE ®: ALCALASE® enzyme, commercially available from Novo, Swissprot accession number P00780 (protein, UniProt P00780 106-379, looked up)
Subtilisin Carlsberg: AQTVPYGIPLIKADKVQAQGFKGANVKVAVLDTGIQASHPDLNVVGGASFVAGEAYNTDGNGHGTHVAGTVAALDNTTGVLGVAPSVSLYAVKVLNSSGSGSYSGIVSGIEWATTNGMDVINMSLGGASGSTAMKQAVDNAYAKGVVVVAAAGNSGSSGNTNTIGYPAKYDSVIAVGAVDSNSNRASFSSVGAELEVMAPGAGVYSTYPTNTYATLNGTSMASPHVAGAAALILSKHPNLSASQVRNRLSSTATYLGSSFYYGKGLINVEAAAQ
With B4, the background response amounted to 2.35% and the “Prominent responses noted at amino acids” value was 19-33. Moreover, for the setting “Table 1”, the “Number of epitope regions” value is recorded as 1 and the Responses per peptide came out at 2.16. Moreover, the Structure Value under setting [1] came to 0.72. For the setting “Table 3”, this molecule registered a Background % of 2.35% and a Response/Peptide of 2.16. Further, the “Structure Value” under setting [2] was 0.72. Moreover, for the setting “compiled responses”, the Structure Value is listed as 0.72.

B5: sTNFR1: soluble tumor necrosis factor receptor 1 (protein, UniProt P19438 30-211, looked up)
extracellular domain: LVPHLGDREKRDSVCPQGKYIHPQNNSICCTKCHKGTYLYNDCPGPGQDTDCRECESGSFTASENHLRHCLSCSKCRKEMGQVEISSCTVDRDTVCGCRKNQYRHYWSENLFQCFNCSLCLNGTVHLSCQEKQNTVCTCHAGFFLRENECVSCSNCKKSLECTKLCLPQIENVKGTEDSGTT
modifications: extracellular domain
For the setting “Table 3”, B5 gave a Background % of 4.2% and a Response/Peptide of 2.9. The “Structure Value” under setting [2] came out at 0.47. Further, the “Background +/− sd” value (Table 5, background response value) was 2.23 +/− 1.95. The same molecule showed a Responses/peptide found (Table 5, determined experimentally) of 1.54.
